From patent US20240009240A1 (published 2024)

What was measured:
[1] = molecular target: … (SEQ ID NO:71) presented on HLA-A*1101 on HLA-A*1101-transduced 293 target cells (human); experiment: cell-based or functional assay
[2] = molecular target: T1, EGFR L858R peptide on HLA-A*11:01 (human); experiment: killing
T1 peptide: KITDFGRAK

[3] = molecular target: T1, EGFR L858R peptide on HLA-A*11:01; experiment: multimer staining

B1: #1. EGFRA11 TCRA11-6; TRAV14DV4*02 J8*01/TRBV12-4*01 C1 J1-1*01 (TCR)
TCR alpha: QKITQTQPGMFVQEKEAVTLDCTYDTSDQSYGLFWYKQPSSGEMIFLIYQGSYDEQNATEGRYSLNFQKARKSANLVISASQLGDSAMYFCAMNTGFQKLVFGTGTRLLVSPNIQNPDPAVYQLRDSKSSDKSVCLFTDFDSQTNVSQSKDSDVYITDNAVLDMRSMDFKSNSAVAWSNKSDFACANAFNNSIIPEDTFFPSPESSCDVKLVEKSFETDTNLNFQNLSVIGFRILLLKVAGFNLLMTLRLWSSRAKRSGSGATNFSLLKQAGDVEENPGP
TCR beta: GVIQSPRHEVTEMGQEVTLRCKPISGHDYLFWYRQTMMRGLELLIYFNNNVPIDDSGMPEDRFSAKMPNASFSTLKIQPSEPRDSAVYFCASRNGPEAFFGQGTRLTVVEDLNKVFPPEVAVFEPSEAEISHTQKATLVCLATGFFPDHVELSWWVNGKEVHSGVCTDPQPLKEQPALNDSRYCLSSRLRVSATFWQNPRNHFRCQVQFYGLSENDEWTQDRAKPVTQIVSAEAWGRADCGFTSVSYQQGVLSATILYEILLGKATLYAVLVSALVLMAMVKRKDF
Q: With B1 as the binder, how does the specific lysis of 293A11 cells pulsed with different amounts of EGFR-A11 peptide, T cells expressing TCR6 construct at a 20:1 ratio (Cr51 release) [1] read?
A: 20 ng/mL

B2: EGFRA11 TCRA11-6 (TCR, V domains shown)
Valpha: QKITQTQPGMFVQEKEAVTLDCTYDTSDQSYGLFWYKQPSSGEMIFLIYQGSYDEQNATEGRYSLNFQKARKSANLVISASQLGDSAMYFCAMNTGFQKLVFGTGTRLLVSP
Vbeta: DAGVIQSPRHEVTEMGQEVTLRCKPISGHDYLFWYRQTMMRGLELLIYFNNNVPIDDSGMPEDRFSAKMPNASFSTLKIQPSEPRDSAVYFCASRNGPEAFFGQGTRLTVV
Q: Does B2 bind [2]?
A: recognises

B3: EGFRA11 TCRA11-7-8 (TCR, V domains shown)
Valpha: RKEVEQDPGPFNVPEGATVAFNCTYSNSASQSFFWYRQDCRKEPKLLMSVYSSGNEDGRFTAQLNRASQYISLLIRDSKLSDSATYLCVVIGGGADGLTFGKGTHLIIQP
Vbeta: GVIQSPRHEVTEMGQEVTLRCKPISGHDYLFWYRQTMMRGLELLIYFNNNVPIDDSGMPEDRFSAKMPNASFSTLKIQPSEPRDSAVYFCASRNGPEAFFGQGTRLTVV
Q: Does B3 bind [3]?
A: recognises

B4: EGFRA11 TCRA11-7-12 (TCR, V domains shown)
Valpha: RKEVEQDPGPFNVPEGATVAFNCTYSNSASQSFFWYRQDCRKEPKLLMSVYSSGNEDGRFTAQLNRASQYISLLIRDSKLSDSATYLCVVIGGGADGLTFGKGTHLIIQP
Vbeta: GVTQSPTHLIKTRGQQVTLRCSSQSGHNTVSWYQQALGQGPQFIFQYYREEENGRGNFPPRFSGLQFPNYSSELNVNALELDDSALYLCASSVGGDTEAFFGQGTRLTVV
Q: Does B4 bind [3]?
A: recognises

B5: EGFRA11 TCRA11-7-18 (TCR, V domains shown)
Valpha: RKEVEQDPGPFNVPEGATVAFNCTYSNSASQSFFWYRQDCRKEPKLLMSVYSSGNEDGRFTAQLNRASQYISLLIRDSKLSDSATYLCVVIGGGADGLTFGKGTHLIIQP
Vbeta: EPEVTQTPSHQVTQMGQEVILRCVPISNHLYFYWYRQILGQKVEFLVSFYNNEISEKSEIFDDQFSVERPDGSNFTLKIRSTKLEDSAMYFCASSGQGDLLYGYTFGSGTRLTVV
Q: Does B5 bind [3]?
A: recognises
